The target in assay [1] is T1, HA of A/South Carolina/1/1918 (H1N1) (influenza A virus (H1N1), UniProt Q9WFX3 18-529). Put plainly: Octet (BLI) with HA.
In assay [2] the target is T2, HA of A/Hong Kong/1/1968 (H3N2) (influenza A virus (H3N2), UniProt Q91MA7 17-530). The assay is described as follows: Octet (BLI) with HA. A general note: Biolayer interferometry detects binding as a change in optical thickness at a sensor tip.
Assay [3] has as its target T3, HA of A/turkey/Wisconsin/1/1966 (H9N2) (influenza A virus (H9N2), UniProt P03457 19-526). The assay is described as follows: Octet (BLI) with HA.
The target in assay [4] is HA of A/Japan/305/1957 (H2N2) (influenza A virus (H2N2), UniProt P03451 16-525). The assay is described as follows: Octet (BLI) with HA.
Assay [5] deals with T1, HA of A/South Carolina/1/1918 (H1N1). The assay is described as follows: ELISA (highest dilution tested 1/50,000). A general note: An ELISA detects its analyte on a solid surface through an enzyme-linked reagent.
Assay [6] has as its target T2, HA of A/Hong Kong/1/1968 (H3N2). Put plainly: ELISA (highest dilution tested 1/50,000).
Assay [7] concerns the target T3, HA of A/turkey/Wisconsin/1/1966 (H9N2). Put plainly: ELISA, recombinant HA.
In assay [8] the target is T4, HA of A/Singapore/1/1957 (H2) (influenza A virus (H2), UniProt Q67333 16-525). The assay is described as follows: ELISA.
Assay [9] addresses T4, HA of A/Singapore/1/1957 (H2). Put plainly: ELISA, recombinant HA.
Assay [10] addresses T3, HA of A/turkey/Wisconsin/1/1966 (H9N2). Put plainly: ELISA, recombinant HA. This is another data set of the same source.
The target of assay [11] is T4, HA of A/Singapore/1/1957 (H2). Put plainly: ELISA. The source holds these as a separate data set.
The target is the same in assay [12]. Put plainly: ELISA, recombinant HA. The source holds these as a separate data set.
For assay [13] the target is unchanged. The assay is described as follows: ELISA. This is another data set of the same source.
Assay [14] shares this target. The assay is described as follows: ELISA. This is another data set of the same source.
In assay [15] the target is T1, HA of A/South Carolina/1/1918 (H1N1). Put plainly: BLI, Fab on immobilized biotinylated HA.
The target in assay [16] is HA of A/Victoria/3/1975 (H3N2) (influenza A virus (H3N2), UniProt P03435 17-531). Put plainly: BLI, Fab on immobilized biotinylated HA.
Chain of HA of A/Victoria/3/1975 (H3N2) (P03435 17-531 limits assumed): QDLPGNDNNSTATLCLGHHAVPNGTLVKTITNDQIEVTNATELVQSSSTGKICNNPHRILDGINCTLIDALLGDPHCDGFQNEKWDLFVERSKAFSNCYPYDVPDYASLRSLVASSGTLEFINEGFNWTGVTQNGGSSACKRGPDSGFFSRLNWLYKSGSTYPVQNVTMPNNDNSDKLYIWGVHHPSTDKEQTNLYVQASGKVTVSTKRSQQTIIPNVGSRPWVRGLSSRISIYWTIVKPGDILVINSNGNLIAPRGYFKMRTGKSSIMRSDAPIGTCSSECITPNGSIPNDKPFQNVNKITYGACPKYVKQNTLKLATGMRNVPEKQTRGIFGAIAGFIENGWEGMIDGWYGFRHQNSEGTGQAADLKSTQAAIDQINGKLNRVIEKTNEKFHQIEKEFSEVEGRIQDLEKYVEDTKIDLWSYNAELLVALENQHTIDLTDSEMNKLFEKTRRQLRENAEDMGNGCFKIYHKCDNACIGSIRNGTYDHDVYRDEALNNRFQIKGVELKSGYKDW
For assay [17], the target named is T1, HA of A/South Carolina/1/1918 (H1N1). Put plainly: BLI, 1:1 global fit; Table S2 of the text prints 46 for this strain.
For assay [18] the target is unchanged. The assay is described as follows: BLI, Fab on immobilized biotinylated HA. The source holds these as a separate data set.
The target in assay [19] is T2, HA of A/Hong Kong/1/1968 (H3N2). Put plainly: ELISA, recombinant HA.
Assay [20] has the same target. The assay is described as follows: ELISA, recombinant HA. The source holds these as a separate data set.
Assay [21] addresses HA of A/Perth/16/2009 (H3N2) (influenza A virus (H3N2), UniProt O11283 17-530). Put plainly: BLI, Fab on immobilized biotinylated HA.
The target of assay [22] is T2, HA of A/Hong Kong/1/1968 (H3N2). The assay is described as follows: BLI, Fab on immobilized biotinylated HA.
Assay [23] has the same target. Put plainly: BLI, Fab on immobilized biotinylated HA. This is another data set of the same source.

Substitutions are numbered along the chain they refer to. Like-named read-outs stand apart in the source and are kept apart here.

T1 sequence (Q9WFX3 18-529): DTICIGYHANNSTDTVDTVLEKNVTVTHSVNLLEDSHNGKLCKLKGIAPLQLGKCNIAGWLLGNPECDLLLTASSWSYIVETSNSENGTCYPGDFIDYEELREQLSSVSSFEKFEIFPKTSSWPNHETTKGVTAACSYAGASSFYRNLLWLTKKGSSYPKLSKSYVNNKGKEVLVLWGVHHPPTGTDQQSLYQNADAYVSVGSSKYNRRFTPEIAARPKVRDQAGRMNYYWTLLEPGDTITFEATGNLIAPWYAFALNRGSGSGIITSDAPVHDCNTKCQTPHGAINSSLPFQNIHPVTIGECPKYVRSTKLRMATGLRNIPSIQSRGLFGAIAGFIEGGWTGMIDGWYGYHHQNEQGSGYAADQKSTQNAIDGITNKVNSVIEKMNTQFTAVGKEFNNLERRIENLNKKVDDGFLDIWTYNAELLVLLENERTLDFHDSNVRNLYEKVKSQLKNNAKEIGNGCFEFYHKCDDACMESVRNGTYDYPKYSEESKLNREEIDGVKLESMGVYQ
T3 sequence (P03457 19-526 limits assumed): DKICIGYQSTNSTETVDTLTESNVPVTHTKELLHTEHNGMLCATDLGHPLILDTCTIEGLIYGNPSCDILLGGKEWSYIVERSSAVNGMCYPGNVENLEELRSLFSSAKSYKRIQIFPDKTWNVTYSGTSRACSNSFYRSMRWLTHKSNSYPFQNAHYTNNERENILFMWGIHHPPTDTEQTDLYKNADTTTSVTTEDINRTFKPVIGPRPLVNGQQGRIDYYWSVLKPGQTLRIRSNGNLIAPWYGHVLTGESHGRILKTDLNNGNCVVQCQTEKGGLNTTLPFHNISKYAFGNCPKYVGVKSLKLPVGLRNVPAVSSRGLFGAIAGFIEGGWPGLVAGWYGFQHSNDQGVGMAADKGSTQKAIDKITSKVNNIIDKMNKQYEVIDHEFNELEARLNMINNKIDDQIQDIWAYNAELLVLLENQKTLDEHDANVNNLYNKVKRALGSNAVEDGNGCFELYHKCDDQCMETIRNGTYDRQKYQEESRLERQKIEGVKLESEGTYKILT

B1: H5.31 (antibody, V domains shown)
VH: EVQLVQSGGGLVQPGGSLRLSCEASRFTSSSYWITWVRQAPGKGLEWVANIKQDGSEKYFVDSVKGRFTISRDNASNSLYLQMSSLRAEDTAVYYCARGFLERLLLGRQGAYYYGMDVWGQGTTVTVSS
VL: DIQMTQSPSSLSASVGDRVTMTCRASQSISSSLNWYQQKPGKAPKLLIYAASNLQSGVPSRFSGSGSGTDFTLTISSLQPEDFATYYCQQSYTMPPELTFGGGTKVQIK
On to B1, for which the dissociation constant Kd in [1] is 0.17 nM; in assay [2], 5.4 nM; in [3], 17 nM; in [4], 0.13 nM. The results for the concentration for a half-maximal effect (EC50) in assay [5] and in assay [6] were 0.031 µg/mL and 0.024 µg/mL, respectively.

B2: H5.28 (antibody, V domains shown)
VH: EVQLVESGGGLVQPGGSLRLSCAASGFTFSTYWMTWVRQAPGKGLEWVANINQDGGEKYFVDSVKGRFTISRDNAKNSLFLQMNTLRAEDTAVYYCARGFLERLLLGRQGAYYYGMDVWGQGTTVTVSS
VL: B1 VL with T20S, S28I, T93S, M94T, Q107E
B2: the Kd was 0.11 nM in assay [1], 75 nM in [2], 65 nM in assay [3] and 0.19 nM in [4]. In addition, the values for the half-maximal effective concentration (EC50) in assay [5] and in [6] were 0.081 µg/mL and 16 µg/mL, respectively.

B3: FluA-20 (hybridoma-produced IgG) (antibody, V domains shown)
VH: QVQLQESGPGLVKPSETLSLTCSVSGVSVTSDIYYWTWIRQPPGKGLEWIGYIFYNGDTNYNPSLKSRVTMSIDTSKNEFSLRLTSVTAADTAVYFCARGTEDLGYCSSGSCPNHWGQGTLVTVSS
VL: DIQMTQSPSSLSASIGDRVTITCRPSQNIRSFLNWFQHKPGKAPKLLIYAASNLQSGVPSRFSGSGSGTEFTLTIRSLQPEDFATYYCQQSYNTPPTFGQGTKVEIK
For the molecule B3, the 50% effective concentration (EC50) in assay [7] came to 0.063 µg/mL; in assay [8], 0.007 µg/mL; in [9] it was 0.009 µg/mL; in [10], 0.022 µg/mL; in [11], 0.18 µg/mL.

B4: rFluA-20 (recombinant FluA-20 IgG) (antibody, V domains shown)
VH: B3 VH
VL: B3 VL
Regarding B4, the EC50 in assay [12] came out at 0.178 µg/mL; in [7], 0.193 µg/mL; in assay [13], 0.011 µg/mL; in assay [10], 0.016 µg/mL; in assay [14] it was 0.011 µg/mL.

B5: FluA-20 Fab (Fab, V domains shown)
VH: B3 VH
VL: B3 VL
As for B5, the Kd was 46 nM in assay [15], 3460 nM in assay [16], ~48 nM in assay [17] and 46 nM in assay [18].

B6: UCA (antibody, V domains shown)
VH: QVQLQESGPGLVKPSETLSLTCTVSGGSVSSGSYYWSWIRQPPGKGLEWIGYIYYSGSTNYNPSLKSRVTISVDTSKNQFSLKLSSVTAADTAVYYCARGTEDLGYCSGGSCPNHWGQGTLVTV
VL: not shown
Consider B6, for which the 50% effective concentration (EC50) was 0.07 µg/mL in [12]; 0.054 µg/mL in [19]; 0.359 µg/mL in assay [7]; 0.028 µg/mL in assay [9]; 0.021 µg/mL in [20].

B7: FluA-20 UCA Fab (unmutated common ancestor of FluA-20) (Fab, V domains shown)
VH: B6 VH
VL: not shown
B7: the Kd in assay [15] came to 937 nM; in assay [22], 486 nM; in assay [18], 937 nM; in assay [23], 486 nM. Further, the binding result in assay [21] and in assay [16] was “no binding (tested: 2 µM)” in each case.

Broadly, the Kd is the constant that tells how readily two partners part at equilibrium. A lower Kd goes with tighter binding. In general, EC50 refers to the concentration needed to bring the measured effect to its halfway point.

The values above are taken from patent US20210252150A1 (VANDERBILT UNIVERSITY, published 2021).
